From US20100279930A1 (published 2010)

B1: 4058071 (protein)
chain: CAPLEPTYPGDNATPEQMARYAAALRRYINKLTRPRYCAPLEPTYPGDNATPEQMARYAAALRRYINKLTRPRY

molecular target: T1, human Y4 receptor (human, UniProt P50391 1-375); assay: 125I-PP displacement
T1 sequence (P50391 whole entry): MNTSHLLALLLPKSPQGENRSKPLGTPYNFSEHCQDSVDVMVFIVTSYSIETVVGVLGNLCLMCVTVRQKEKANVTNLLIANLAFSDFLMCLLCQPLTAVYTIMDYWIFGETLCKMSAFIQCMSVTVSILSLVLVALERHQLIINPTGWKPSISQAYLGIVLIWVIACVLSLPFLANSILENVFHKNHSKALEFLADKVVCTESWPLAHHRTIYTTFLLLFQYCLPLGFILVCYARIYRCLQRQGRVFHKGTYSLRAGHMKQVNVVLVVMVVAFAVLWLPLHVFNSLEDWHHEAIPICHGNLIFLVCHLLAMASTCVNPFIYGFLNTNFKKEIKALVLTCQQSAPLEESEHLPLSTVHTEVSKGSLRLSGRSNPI

PLEPKYPGDNATPEELAKYAAELRRYINKLTRPRY [4058687] and PLEPKYPGDDATPEELAHYYSELRRYINKLTRPRY [4058706] are within 1.5-fold of each other in IC50: 96 pM for the first, 84 pM for the second.

PLEPHYPGDNATPEELAKYAAELRRYINKLTRPRY [4058702] and APLEPKYPGDNATPEELAKYAAELRRYINKLTRPRY [4058688] are within 1.5-fold of each other in IC50: 86 pM for the first, 89 pM for the second.

First: APLEPKYPGDDATPEELAHYYSELRRYINKLTRPRY [4058707]
Second: APLEPHYPGDNATPEELAKYAAELRRYINKLTRPRY [4058703]
The IC50 of the first is 1.5-fold higher: 89 pM for the first, 59 pM for the second. The second is the more potent here.

PLEPEYPGDDATPQEMARYAAELRRYINKLTRPRY [4058679] and PLEPEYPGDNATPEEMAKYAADLRRYINKLTRPRY [4058675] are within 1.5-fold of each other in IC50: 78 pM for the first, 95 pM for the second.

PLEPEYPGDNATPEEMARYAAELRRYINKLTRPRY [4058674] and PLEPEYPGDDATPEEMAKYAAELRRYINKLTRPRY [4058673] are within 1.5-fold of each other in IC50: 82 pM for the first, 91 pM for the second.

Going from PLEPEYPGDNATPEEMAKYAAALRRYINKLTRPRY [4058676] to AAPLEPHYPGDNATPEEMAKYAAELRRYINKLTRPRY [4058697], the IC50 rises from 61 pM to 95 pM (1.6-fold).

YAPLEPKYPGDNATPEELAKYAAELRRYINKLTRPRY [4058693] and HAPLEPHYPGDNATPEEMAKYAAELRRYINKLTRPRY [4058699] are within 1.5-fold of each other in IC50: 77 pM for the first, 92 pM for the second.

GAPLEPKYPGDNATPEELAKYAAELRRYINKLTRPRY [4058691] and AKPLEPKYPGDNATPEELAKYAAELRRYINKLTRPRY [4058690] are within 1.5-fold of each other in IC50: 98 pM for the first, 71 pM for the second.

PAPLEPHYPGDNATPEELAKYAAELRRYINKLTRPRY [4058678] and GAPLEPHYPGDNATPEEMAKYAAELRRYINKLTRPRY [4058698] are within 1.5-fold of each other in IC50: 90 pM for the first, 72 pM for the second.

AAPLEPHYPGDNATPEELAKYAAELRRYINKLTRPRY [4058704] and HAPLEPKYPGDNATPEELAKYAAELRRYINKLTRPRY [4058692] are within 1.5-fold of each other in IC50: 94 pM for the first, 131 pM for the second.

Going from PAPLEPKYPGDNASPEQMAKYAAELRRYINKLTRPRY [4058669] to APLEPEYPGDDATPQEMARYAAELRRYINKLTRPRY [4058680], the IC50 rises from 43 pM to 69 pM (1.6-fold).

Going from HAPLEPKYPGDDATPEELAHYYSELRRYINKLTRPRY [4058710] to AAPLEPKYPGDDATPEELAHYYSELRRYINKLTRPRY [4058708], the IC50 falls from 129 pM to 79 pM (1.6-fold).

First: PAPLEPKYPGDDATPEELAHYYSELRRYINKLTRPRY [4058709]
Second: PAPLEPTYPGDNATPEELARYAAALRRYINKLTRPRY [4058738]
The IC50 of the first is 1.5-fold higher: 83 pM for the first, 55 pM for the second.

PAPLEPKYPGDDATPQEMARYAAELRRYINKLTRPRY [4058686] and PAPLEPHYPGDDATPEELAKYAAELRRYINKLTRPRY [4058705] are within 1.5-fold of each other in IC50: 76 pM for the first, 97 pM for the second.

PAPLEPEYPGDDATPQEMARYAAELRRYINKLTRPRY [4058681] and AKPLEPEYPGDDATPQEMARYAAELRRYINKLTRPRY [4058685] are within 1.5-fold of each other in IC50: 87 pM for the first, 90 pM for the second.

PAPLEPKYPGDDATPQQMAKYAAELRRYINKLTRPRY [4058670] and YAPLEPEYPGDDATPQEMARYAAELRRYINKLTRPRY [4058684] are within 1.5-fold of each other in IC50: 80 pM for the first, 87 pM for the second.

GAPLEPEYPGDDATPQEMARYAAELRRYINKLTRPRY [4058682] and AAPLEPEYPGDDATPQEMARYAAELRRYINKLTRPRY [4058683] are within 1.5-fold of each other in IC50: 76 pM for the first, 81 pM for the second.

With PAPLEPHYPGDDATPEEMAKYAAELRRYINKLTRPRY [4058701] the IC50 was 99 pM.

molecular target: T1, human Y4 receptor; assay: 125I-PP displacement; remark: another data set of the same source

Compared with PLEPKYPGDNATPEQMAKYAAELRRYINKLTRPRY [4058158], HAPLEPEYPGDNATPEEMAKYAAELRRYINKLTRPRY [4058074] is 2.5-fold higher in IC50: 47 pM for the first, 116 pM for the second.

Compared with PAPLEPKYPGDNATPEQMAKYAAELRRYINLLTRPRY [4058169], AAPLEPTYPGDNATPEQMARYAAALRRYINKLTRPRY [4058068] is 3.8-fold lower in IC50: 99 pM for the first, 26 pM for the second. The second is the more potent here.

Compared with GAPLEPKYPGDNATPEQLAKYAAELRRYINKLTRPRY [4058167], AAPLEPSYPGDDATPQQMAHYYSELRRYINLLTRPRY [4058082] is 1.8-fold higher in IC50: 60 pM for the first, 110 pM for the second. The first is the more potent here.

Compared with B1, HAPLEPTYPGDNATPEQMARYAAALRRYINKLTRPRY [4058069] is 2-fold lower in IC50: 143 pM for the first, 70 pM for the second. The second is the more potent here.

In the case of PAPLEPEYPGDNATPEEMAKYAAELRRYINKLTRPRY [4058077], the IC50 is reported as 59 pM.
